Source: patent US20170101466A1
Blank lines part the entries; values can stand above or below the binder they belong to.

Key:
[1] = target: soluble human BLyS (human) (UniProt Q9Y275); assay: cell-based or functional assay
[2] = target: soluble mouse BLyS (mouse) (UniProt Q9WU72); assay: cell-based or functional assay

hBLyS B-cell proliferation (IC50) [1]: 12
B1: 14F11 IgG expressed in HEK293 cells (antibody, V domains shown)
VH: QVQLVQSGAEVKKPGSSVKVSCKASGGTFSSYAISWVRQAPGQGLEWMGRINPNSGGTNYAQKFQGRVTMTRDTSISTAYMELSRLRSDDTFVYYCAREGYDFLTGYTLGGMDVWGQGTTVTVSS
VL: QSVLTQPPSVSAAPGQKVTISCSGSSSNIGNNYVSWYQQLPGTAPKLLIYDNNKRPSGIPDRFSASKSGTSASLAISGLQAEDEADYYCQSYDSSLSGVVFGGGTKLTVLG

IC50 mBLyS stimulated, mouse splenic B-cell proliferation [2]: 7 ng/mL
IC50 hBLyS stimulated, mouse splenic B-cell proliferation [1]: 7 ng/mL
B2: human TACI (immunoglobulin fusion) (Fc fusion, part only; not given: immunoglobulin part, UniProt O14836 30-110, looked up, part only)
chain, part: AMRSCPEEQYWDPLLGTCMSCKTICNHQSQRTCAAFCRSLSCRKEQGKFYDHLLRDCISCASICGQHPKQCAYFCENKLRS
